Test [1] concerns the target interferon-alpha/β receptor (IFNAR) (human) (UniProt P17181).
Test [2] shares this target. The source holds these as a separate data set.
The target is the same in test [3]. The source holds these as a separate data set.

Experimental findings from patent US20180305460A1 are described below.

Sequence of interferon-alpha/β receptor (IFNAR) (human) (P17181 28-557 limits assumed): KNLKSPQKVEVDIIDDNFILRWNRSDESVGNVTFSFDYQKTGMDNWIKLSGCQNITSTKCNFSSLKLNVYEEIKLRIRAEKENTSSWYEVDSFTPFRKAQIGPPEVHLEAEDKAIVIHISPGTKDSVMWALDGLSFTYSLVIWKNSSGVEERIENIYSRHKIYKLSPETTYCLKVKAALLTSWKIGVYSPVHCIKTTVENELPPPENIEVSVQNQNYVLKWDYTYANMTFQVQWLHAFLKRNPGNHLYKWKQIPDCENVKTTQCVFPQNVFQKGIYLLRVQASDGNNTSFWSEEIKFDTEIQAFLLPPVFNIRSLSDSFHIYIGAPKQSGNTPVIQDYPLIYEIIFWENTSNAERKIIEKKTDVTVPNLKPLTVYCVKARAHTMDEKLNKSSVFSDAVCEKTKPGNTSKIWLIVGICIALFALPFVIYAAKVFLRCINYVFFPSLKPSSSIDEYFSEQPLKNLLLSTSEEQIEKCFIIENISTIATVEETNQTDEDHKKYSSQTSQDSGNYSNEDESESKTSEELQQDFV

Take Intron A (ligand): in test [1], the EC50; HEK-Blue IFN-alpha/β SEAP reporter (A630nm), left panel, the unit comes from the x axis 'Ifnα2b Equivalents in pM' was 1.13 pM and the EC50; HEK-Blue IFN-alpha/β SEAP reporter (A630nm), right panel, the unit comes from the x axis 'IFNα2b equivlaents in pM' is 1.52 pM. Also, the half-maximal concentration headed 'IC50 pM' on the sheet (paragraph 233 calls the values EC50; the curves rise); iLite IFN-response-element luciferase reporter (RLU) in test [2] was 0.0645 pM. Besides, in test [3], the EC50; HEK-Blue IFN-alpha/β SEAP reporter (A630) on CD38-negative cells; table column headed 'IFNa2b', curve labelled 'Intron A', the unit comes from the x axis 'IFN pM' was 1.52 pM.
